Blank lines part the entries; values can stand above or below the binder they belong to.
Biological target: T1, TIGIT antigen (UniProt Q495A1)
T1 sequence (looked up): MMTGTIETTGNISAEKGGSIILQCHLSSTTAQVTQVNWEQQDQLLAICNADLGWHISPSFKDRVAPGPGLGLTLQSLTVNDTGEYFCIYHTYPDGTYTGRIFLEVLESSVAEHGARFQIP
Test: ELISA on TIGIT antigen, OD405

ELISA OD405 Reading: 0.547 OD405
B1: TT321 (Fab, part only; not given: Tiragolumab light chain, V domains shown, part only)
VH: EVQLVESGGGLVQPGGSLRLSCAASGFTFNMYAMSWVRQGPGKGLEWVSTISGGAGSTYYADSVKGRFTISRDNSKNTVYLQMNSLRAEDTAVYYCASEVVAATTLDYWGQGTTVTVSS

ELISA OD405 Reading: 0.474 OD405
B2: TT385 (Fab, part only; not given: Tiragolumab light chain, V domains shown, part only)
VH: EVQLVESGPEVKKPGTSVKVSCKASGLTFSRSAVQWLRQARGQRLEWIGWVDVASSNTNYAQKFQERVTITRDMSTSTAYMELSNLRTEDTAVYYCAADLYGFWGVQGFDPWGQGTMVTVSS

ELISA OD405 Reading: 0.471 OD405
B3: TT357 (Fab, part only; not given: Tiragolumab light chain, V domains shown, part only)
VH: QVQLVQSGGGLVQPGGSLRLSCAASGFTFSRYWMTWVRQAPGKGLEWVANTNQDGSETYYVDSVKGRFTISRDNAKNSLYLQMNSLRAEDTAVYYCARRWSGYHDGSGYDYFDYWDQGTLVTVSS
